± gives the uncertainty stated by the source.
Assay: amyloid nucleation score (Sup35N fusion, yeast selection) (log enrichment); library NNK3; higher = more nucleation; inactive = no reads after selection
Outline: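 The nucleation score is the log enrichment of output over input reads, calculated with DiMSum and centred on the mode score of non-aggregating sequences. Sequences with under 100 input reads were excluded. Reads came from Illumina sequencing of plasmid inserts from psi-negative yeast expressing Sup35N fused to peptides of 20 random codons, induced 24 hours with 100 μM copper sulfate and grown 7 days at 30°C without adenine and uracil.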

| Substance | amyloid nucleation score |
| --- | --- |
| NWSLSKSRHIPLGTCRGISY | -0.201 ± 0.84 |
| ILLVWNSMLYYTLDTCVNCC | inactive |
| NTRREDSGWTNLCFWCARN | 2.01 ± 0.052 |
| KFGFCDIMKGLFRRMLGLKV | -1.06 ± 1.3 |
| NAYVEGRSWVLVIENKDFAV | inactive |
| CFLSWWLRDLVLSSCSTYVD | inactive |
| AYEIQWIWPNAASTVKSVLA | inactive |
| SYNSVRW | inactive |
| CPRDNVSIVKWWLAYRDSHA | inactive |
| LKDCTCEFIFMTGKYCIYFR | -0.495 ± 0.76 |
| RDYLYGNDMSNVKGYRRRWY | inactive |
| SLSLRWFVGCKGSDGSALQC | inactive |
| GSRGYGWFMKTFAYPRNCKN | inactive |
| FSYLLYRRNDTCPQALRLRR | inactive |
| QQHRSALRVQVHRVCGNSVI | inactive |
| FYFWLASLCSSDFSFYKVKL | inactive |
| SVMHKSRSRGFNRNDGSVRV | inactive |
| SVYLGFIVGSVHPTHVISMR | inactive |
| ILRLSPTFGRQSYSVKVGLK | inactive |
| FYYPRS | inactive |
| CFYLDQSRFRSA | inactive |
| HSVWVYKHGLCDMWGGLTLI | inactive |
| SIGISEPLIIYLFNWQLLYW | inactive |
| PNCLMS | inactive |

| Substance | amyloid nucleation score |
| --- | --- |
| EVYFKMAQPLLHWDYERMQV | inactive |
| YSIISSYTFEFSKFAVLALL | inactive |
| NVPKPGTFFCDKCYYGCVWD | 0.642 ± 0.48 |
| RMGHWCRVAGSKLLGVV | -0.131 ± 1.2 |
| TLCST | inactive |
| IYVGKRNSCRPSSEDSVGNR | 0.402 ± 0.38 |
| SSNILFVIFIAY | 1.08 ± 0.21 |
| RANSIC | inactive |
| EFLGFCFPIAGYFLKDEKIG | inactive |
| CADQWS | inactive |
| ESLEMVWPRAMR | inactive |
| DCMSHLLF | inactive |
| VCSSGQKSLKMLRIFHIFNP | -0.352 ± 0.87 |
| VESYPVGLY | 1.56 ± 0.068 |
| GSFITSNA | inactive |
| YYFLDRGGITSTIFRLLCPF | inactive |
| KYNFNYPEITLAPTYYMSIT | inactive |
| SGKGE | inactive |
| GNCSWRVYGISSGFLRHGAV | inactive |
| PGHIYVML | inactive |
| TNMVMA | inactive |
| RFNFNFFRSRSHLSVFTQFG | inactive |
| WVGLCFLRFQVHSTSDESVS | inactive |
| VYIRTGN | inactive |

| Substance | amyloid nucleation score |
| --- | --- |
| NLMRSILWVEYVQDCNCCSG | 2.54 ± 0.07 |
| QQVVSLEGRRTKVTLTYQGS | 1.04 ± 0.11 |
| IQKLSFYTVCFMYDWLLTFK | inactive |
| LWAWIIYGMWKGSFLCHVFS | inactive |
| VKSISNNSQLSSELN | inactive |
| DSMCRYV | 0.893 ± 0.12 |
| PRIRD | inactive |
| AGVWWVCRRGVFFALMLM | inactive |
| VTLLPVSVCINAFNLILGPF | 3.08 ± 0.065 |
| SLSYFLSFS | 1.14 ± 0.085 |
| MAVID | inactive |
| THFYWADAVVMPAYRVIRRF | inactive |
| LFARRVGSYCVIVCQPVLWE | inactive |
| GMLPTGRYDRAYSFWGNWRR | 1.08 ± 0.18 |
| MSVACFSLASVFQWGFFASC | inactive |
| KSLTAYSLFVASYLSSFEWG | inactive |
| TLVGFRALKYIRWTCLAHRF | inactive |
| NGVVLLQIKIRDPRSCWWGV | inactive |
| LCPVMLDRRSARSKGPALIL | inactive |
| RLCWLNVDHGLLVNPPWGYR | inactive |
| FITGCSYVAYFMIAA | inactive |
| NYSSAQEYKVSQERIS | inactive |
| LYILGQIFR | inactive |
| LCFMRHSLRGWG | -0.415 ± 0.96 |

| Substance | amyloid nucleation score |
| --- | --- |
| PYSNTKGANELQSYRRYVVS | inactive |
| IFPFFVSL | inactive |
| VPPFTLTSVVYLSFCVCGGD | 0.701 ± 0.13 |
| SDERCLFGVQRYMHVFLRPI | inactive |
| CVFPCMFLEFTMTDMKLYSS | inactive |
| PHCPELEQQVKCGTS | 0.178 ± 0.26 |
| SQCYCVYAGVVT | 0.034 ± 0.51 |
| ILRNMDGRRNSVVRDVVRVK | inactive |
| VRSCAKLPSVHKYLAQARRL | inactive |
| HSMNHFIWLVFKMVSYVACV | inactive |
| LSLLSFNGIGHFLIVRKRYK | inactive |
| NLRFRSIFSS | inactive |
| YNVIT | inactive |
| WRLVLLHW | inactive |
| VYDMDNVRYNHRGNTERFSG | 0.109 ± 0.28 |
| ASRKTFYAL | inactive |
| VKREWSAI | inactive |
| NSSNII | 2.56 ± 0.067 |
| ETGYKCAKGFYRCTGRGMVW | inactive |
| YEWSYCFNYLCHHYDTNWQR | 2.96 ± 0.056 |
| LKVFKWKISTLMKAAQPIAS | inactive |
| KFLYRCINRLANSLIRELPI | inactive |
| RRFRSLKRPAQNLSDALMSG | inactive |
| VLGILVDFDLIKV | inactive |

| Substance | amyloid nucleation score |
| --- | --- |
| YVTTMFEITRGRSWYSRSLG | 0.611 ± 0.21 |
| KMQISTKVCDMDLFCPKTIP | inactive |
| LSKLTSSQAGKG | inactive |
| YIVLAPCWCHIGSIDLAVPH | 3.01 ± 0.06 |
| VCTLGFFSKMGRGPRYYS | inactive |
| GSCRGVRWASRE | inactive |
| QPWFMEVL | inactive |
| QVPLCHMAGKQNLVSRAQTC | inactive |
| GGLSS | -0.809 ± 0.71 |
| CKKGRLVGRSRCLVCWMCCM | -0.155 ± 0.96 |
| VFFYAASD | inactive |
| CQVGRKRLLYVFTGYK | inactive |
| FCYGSFGGLRELYCC | inactive |
| GTYSTVKFCLCMWVILAPSS | inactive |
| GSSVCAR | inactive |
| YQLFRFWDVRDSNHSKKIMQ | inactive |
| TVQFMRKAQRQFSGA | inactive |
| LKISALTIESMF | inactive |
| FAISSILSMDAPGLDQIDRF | inactive |
| SSLIGRVDRIMYVSARERTI | inactive |
| LHYLLTLARKSEWHYLLDIR | inactive |
| CTSTLMEFSFSYEWSNGCCS | inactive |
| MSGTLCPSHNILETDCRVQV | inactive |

— the supplement of paper PMC12042874
